Results on 1 molecule are retold here after PMC8784325, “The ubiquitin-binding domain of DNA polymerase η directly binds to DNA clamp PCNA and regulates translesion DNA synthesis” (The Journal of Biological Chemistry, 2021).

The test system of assay [1] is rad30Δ S. cerevisiae strain. Nature of the assay: UV sensitivity complementation (spot assay), rad30Δ strain. The class given is cell-based, Saccharomyces cerevisiae. The conditions noted are these: ADH1 promoter, UV 16–32 J/m^2, 30 °C, 3 days. How it is done:
Figure 1 Identification of PCNA interaction region in CaPolη.A, amino acid alignment between Ca- and Sc-Polη was carried out by EMBOSS Needle; identical amino acids are marked by ∗ and similar amino acids were marked by: symbols. All the important motifs and domains are underlined, including Motif I to V, PAD, ubz and pip. Putative pip sequences were labeled as Seq-1 through Seq-4 in the C-terminal domain. […] C, putative pip sequences of CaPolη were compared with the already identified pip motifs of other Y-family pols. D, line diagram showing various domains of Polηs and a C-terminal deletant CaPolη (1–512). E, determination of binding kinetics of wild type or truncated CaPolƞ (1–512) with CaPCNA by ITC. […] F, UV sensitivities of S. cerevisiae strains. Cells of genomic rad30Δ and rad30Δrev3Δ deletion S. cerevisiae strains harboring YEP-ADH1p or YEP-ADH1p-ScPolη or YEP-ADH1p-CaPolη or YEP-ADH1p-CaPolη (1–512) or YEP-ADH1p-CaPolη F485A,L486A plasmids from an overnight SD-Ura culture were serially diluted and spotted onto SD-Ura plates. […]
Figure 2 Ubz domain of CaPolη is essential TLS activity.A, a line diagram showing the deletion and site-directed mutations in the ubz domain of CaPolη. […] Following UV irradiation, plates were incubated in the dark, and colonies were counted after 3 to 5 days. […]

In assay [2] the test system is rad30Δ S. cerevisiae strain. The conditions noted are these: S. cerevisiae strains; cited from earlier work.

B1: ScPolη F627A,F628A (protein, UniProt Q04049 1-632, looked up, variant F627A F628A)
DNA polymerase eta: MSKFTWKELIQLGSPSKAYESSLACIAHIDMNAFFAQVEQMRCGLSKEDPVVCVQWNSIIAVSYAARKYGISRMDTIQEALKKCSNLIPIHTAVFKKGEDFWQYHDGCGSWVQDPAKQISVEDHKVSLEPYRRESRKALKIFKSACDLVERASIDEVFLDLGRICFNMLMFDNEYELTGDLKLKDALSNIREAFIGGNYDINSHLPLIPEKIKSLKFEGDVFNPEGRDLITDWDDVILALGSQVCKGIRDSIKDILGYTTSCGLSSTKNVCKLASNYKKPDAQTIVKNDCLLDFLDCGKFEITSFWTLGGVLGKELIDVLDLPHENSIKHIRETWPDNAGQLKEFLDAKVKQSDYDRSTSNIDPLKTADLAEKLFKLSRGRYGLPLSSRPVVKSMMSNKNLRGKSCNSIVDCISWLEVFCAELTSRIQDLEQEYNKIVIPRTVSISLKTKSYEVYRKSGPVAYKGINFQSHELLKVGIKFVTDLDIKGKNKSYYPLTKLSMTITNFDIIDLQKTVVDMFGNQVHTFKSSAGKEDEEKTTSSKADEKTPKLECCKYQVTFTDQKALQEHADYHLALKLSEGLNGAEESSKNLSFGEKRLLFSRKRPNSQHTATPQKKQVTSSKNILSAATRKK
On to B1, for which, in assay [1], the “UV sensitivity / complementation (in words)” value is “abrogated its TLS function and displayed equal UV sensitivity with rad30Δ strain”. For the same molecule, the “UV sensitivity and UV-induced mutagenesis (in words)” value in assay [2] was “enhanced UV sensitivity and UV-induced mutagenesis”.
